The results in this text go back to patent US20110086028A1.

The target in assay [1] is endogenous cell-associated gp-340 on human cell lines (AGS, VK2E6E7, Endo1E6E7, Ect1E6E7, HEC1A, untransfected 293) and human vaginal and cervical tissue (human) (UniProt Q9UGM3). Description: cell-based or functional assay.
In assay [2] the target is full length gp-340 (exon 1-54) expressed on the surface of 293 cells transfected with pDEST-DMBT1 (clone 1D4) (UniProt Q9UGM3). Put plainly: cell-based or functional assay.
Chain of full length gp-340 (exon 1-54) expressed on the surface of 293 cells transfected with pDEST-DMBT1 (clone 1D4) (Q9UGM3 20-2413 limits assumed, change not shown): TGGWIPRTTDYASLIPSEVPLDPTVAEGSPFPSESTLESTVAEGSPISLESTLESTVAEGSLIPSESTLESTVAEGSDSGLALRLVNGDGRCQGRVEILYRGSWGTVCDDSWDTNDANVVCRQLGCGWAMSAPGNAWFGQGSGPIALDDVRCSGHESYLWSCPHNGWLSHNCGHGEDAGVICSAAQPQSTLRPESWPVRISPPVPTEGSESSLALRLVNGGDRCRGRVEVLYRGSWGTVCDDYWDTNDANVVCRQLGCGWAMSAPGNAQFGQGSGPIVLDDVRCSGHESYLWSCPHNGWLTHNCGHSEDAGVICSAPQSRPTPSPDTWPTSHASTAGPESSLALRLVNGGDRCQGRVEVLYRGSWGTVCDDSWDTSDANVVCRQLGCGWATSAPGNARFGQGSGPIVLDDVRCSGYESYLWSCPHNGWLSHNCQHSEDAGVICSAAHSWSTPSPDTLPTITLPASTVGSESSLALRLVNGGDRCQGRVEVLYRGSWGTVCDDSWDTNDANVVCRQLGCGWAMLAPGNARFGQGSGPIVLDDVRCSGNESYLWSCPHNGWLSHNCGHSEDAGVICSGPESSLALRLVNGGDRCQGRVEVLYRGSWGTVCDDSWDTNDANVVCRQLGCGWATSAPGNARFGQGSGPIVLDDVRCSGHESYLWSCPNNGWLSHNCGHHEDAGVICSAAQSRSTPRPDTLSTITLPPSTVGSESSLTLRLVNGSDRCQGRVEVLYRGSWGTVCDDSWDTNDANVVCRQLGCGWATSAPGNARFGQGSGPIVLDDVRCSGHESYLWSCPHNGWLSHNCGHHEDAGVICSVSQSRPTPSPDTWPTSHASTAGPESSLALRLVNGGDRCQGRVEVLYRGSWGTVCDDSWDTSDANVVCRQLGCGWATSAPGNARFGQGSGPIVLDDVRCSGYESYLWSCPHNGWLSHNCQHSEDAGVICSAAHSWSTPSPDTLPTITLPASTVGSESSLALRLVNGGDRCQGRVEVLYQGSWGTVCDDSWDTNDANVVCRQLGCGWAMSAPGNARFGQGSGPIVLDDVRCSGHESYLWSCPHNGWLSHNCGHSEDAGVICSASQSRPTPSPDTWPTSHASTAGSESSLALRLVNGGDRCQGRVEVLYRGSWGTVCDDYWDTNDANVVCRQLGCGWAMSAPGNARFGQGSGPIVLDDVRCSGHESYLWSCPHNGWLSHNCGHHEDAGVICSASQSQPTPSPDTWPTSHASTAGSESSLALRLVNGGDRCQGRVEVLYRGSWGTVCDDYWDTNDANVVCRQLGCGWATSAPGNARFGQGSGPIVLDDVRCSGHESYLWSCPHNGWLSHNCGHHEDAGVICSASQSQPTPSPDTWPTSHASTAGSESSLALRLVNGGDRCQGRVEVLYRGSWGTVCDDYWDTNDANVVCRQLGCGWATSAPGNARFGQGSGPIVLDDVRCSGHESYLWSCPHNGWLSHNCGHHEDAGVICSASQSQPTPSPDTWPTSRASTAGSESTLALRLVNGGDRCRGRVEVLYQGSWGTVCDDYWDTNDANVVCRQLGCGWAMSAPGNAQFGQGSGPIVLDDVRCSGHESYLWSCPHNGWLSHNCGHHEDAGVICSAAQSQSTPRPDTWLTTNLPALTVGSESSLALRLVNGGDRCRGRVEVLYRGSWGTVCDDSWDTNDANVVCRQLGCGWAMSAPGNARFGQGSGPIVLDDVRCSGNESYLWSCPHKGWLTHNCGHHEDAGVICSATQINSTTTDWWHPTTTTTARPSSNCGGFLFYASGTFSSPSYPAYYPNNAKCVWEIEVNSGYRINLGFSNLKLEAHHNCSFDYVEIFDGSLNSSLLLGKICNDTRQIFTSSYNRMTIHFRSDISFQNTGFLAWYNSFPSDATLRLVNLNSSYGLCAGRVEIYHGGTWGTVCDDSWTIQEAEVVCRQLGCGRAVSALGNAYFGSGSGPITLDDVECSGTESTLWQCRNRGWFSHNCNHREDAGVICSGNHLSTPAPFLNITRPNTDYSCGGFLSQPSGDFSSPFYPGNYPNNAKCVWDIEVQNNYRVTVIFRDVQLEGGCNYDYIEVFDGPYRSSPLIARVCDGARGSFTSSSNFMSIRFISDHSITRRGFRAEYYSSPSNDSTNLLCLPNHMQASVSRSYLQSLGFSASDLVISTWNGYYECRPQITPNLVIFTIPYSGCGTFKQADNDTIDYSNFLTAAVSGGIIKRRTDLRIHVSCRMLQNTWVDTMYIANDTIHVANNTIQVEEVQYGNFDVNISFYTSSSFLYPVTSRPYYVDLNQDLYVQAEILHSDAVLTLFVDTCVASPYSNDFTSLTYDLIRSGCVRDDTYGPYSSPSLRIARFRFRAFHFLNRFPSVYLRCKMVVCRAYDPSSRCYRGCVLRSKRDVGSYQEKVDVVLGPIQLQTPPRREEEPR

Chain of endogenous cell-associated gp-340 on human cell lines (AGS, VK2E6E7, Endo1E6E7, Ect1E6E7, HEC1A, untransfected 293) and human vaginal and cervical tissue (human) (Q9UGM3 20-2413): as the sequence (Q9UGM3 20-2413 limits assumed, change not shown) above

For the substance “HIV-1 Env (gp120) of primary M-tropic strain BL2, on virus particles”, in assay [1], the enhancement in viral infectivity (AGS cell trans-infection) came out at 6 fold and the viral input at which cells were infected in 50% of the wells (AGS cell trans-infection) was found to be 0.08 IU. Moreover, in assay [2], the TCID50 of added virus in trans-infection to PHA-blasts, gp-340 expressing 293 cells against non-exogenously expressing 293 cells worked out at 6 fold; the mean P24 in 6 wells, clone 1D4 without peptide 6284, 0.11 IU was 184; the mean P24 in 6 wells, clone 1D4 without peptide 6284, 0.33 IU was determined as 239; the percentage of wells infected at 0.11 IU of HIV added (trans-infection, gp-340 expressing 293 cells) came to 50%. This substance yielded a percentage of wells infected at 0.33 IU of HIV added (trans-infection, gp-340 expressing 293 cells) in assay [2] of 100%.
